From paper PMC2709577
Where two headings read alike, the source gives them in different places.

B1: 105 bp cognate TGAATTC (dsDNA)
DNA 1: TAAGTTGGGTAACGCCAGGGTTTTCCCAGTCACGACGTTGTAAAACGACGGCCAGTGAATTCGAGCTCGGTACCCGGGGATCCTCTAGAGTCGACCTGCAGGCAT
DNA 2: ATGCCTGCAGGTCGACTCTAGAGGATCCCCGGGTACCGAGCTCGAATTCACTGGCCGTCGTTTTACAACGTCGTGACTGGGAAAACCCTGGCGTTACCCAACTTA
B2: 105 bp AGAATTC (5' flank T to A) (dsDNA)
DNA 1: TAAGTTGGGTAACGCCAGGGTTTTCCCAGTCACGACGTTGTAAAACGACGGCCAGAGAATTCGAGCTCGGTACCCGGGGATCCTCTAGAGTCGACCTGCAGGCAT
DNA 2: ATGCCTGCAGGTCGACTCTAGAGGATCCCCGGGTACCGAGCTCGAATTCTCTGGCCGTCGTTTTACAACGTCGTGACTGGGAAAACCCTGGCGTTACCCAACTTA
B3: 105 bp TGCATTC (second base A to C) (dsDNA)
DNA 1: TAAGTTGGGTAACGCCAGGGTTTTCCCAGTCACGACGTTGTAAAACGACGGCCAGTGCATTCGAGCTCGGTACCCGGGGATCCTCTAGAGTCGACCTGCAGGCAT
DNA 2: ATGCCTGCAGGTCGACTCTAGAGGATCCCCGGGTACCGAGCTCGAATGCACTGGCCGTCGTTTTACAACGTCGTGACTGGGAAAACCCTGGCGTTACCCAACTTA
B4: 105 bp TGACTTC (third base A to C) (dsDNA)
DNA 1: TAAGTTGGGTAACGCCAGGGTTTTCCCAGTCACGACGTTGTAAAACGACGGCCAGTGACTTCGAGCTCGGTACCCGGGGATCCTCTAGAGTCGACCTGCAGGCAT
DNA 2: ATGCCTGCAGGTCGACTCTAGAGGATCCCCGGGTACCGAGCTCGAAGTCACTGGCCGTCGTTTTACAACGTCGTGACTGGGAAAACCCTGGCGTTACCCAACTTA
B5: 105 bp TTAATTC (first base G to T) (dsDNA)
DNA 1: TAAGTTGGGTAACGCCAGGGTTTTCCCAGTCACGACGTTGTAAAACGACGGCCAGTTAATTCGAGCTCGGTACCCGGGGATCCTCTAGAGTCGACCTGCAGGCAT
DNA 2: ATGCCTGCAGGTCGACTCTAGAGGATCCCCGGGTACCGAGCTCGAATTAACTGGCCGTCGTTTTACAACGTCGTGACTGGGAAAACCCTGGCGTTACCCAACTTA

Experiments:
Assay in all cases: nanopore rupture with qPCR
[1] = biological target: T1, EcoRI restriction endonuclease (UniProt P00642 1-277)
[2] = biological target: T1, EcoRI restriction endonuclease; remark: listed apart in the source
[3] = biological target: T1, EcoRI restriction endonuclease; remark: listed apart in the source

T1 sequence (P00642 whole entry): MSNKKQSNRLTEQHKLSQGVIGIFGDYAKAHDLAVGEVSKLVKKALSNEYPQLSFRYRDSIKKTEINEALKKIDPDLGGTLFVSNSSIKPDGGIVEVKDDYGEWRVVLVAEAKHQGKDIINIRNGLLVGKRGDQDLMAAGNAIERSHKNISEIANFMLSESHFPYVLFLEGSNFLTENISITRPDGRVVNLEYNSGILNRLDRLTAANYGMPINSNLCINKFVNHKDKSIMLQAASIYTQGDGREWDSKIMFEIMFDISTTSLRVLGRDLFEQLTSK

Row | Binder | binding signal [1] | binding signal [2] | binding signal [3]
1 | B1 | 2.16 ± 0.08 V (threshold voltage) | 2.08 ± 0.03 V (threshold voltage) | 2.09 ± 0.06 V (threshold voltage)
2 | B2 | 1.62 ± 0.07 V (threshold voltage) | 1.72 ± 0.05 V (threshold voltage) | 1.84 ± 0.05 V (threshold voltage)
3 | B3 | 0.87 ± 0.06 V (threshold voltage) | 0.93 ± 0.05 V (threshold voltage) | 0.93 ± 0.06 V (threshold voltage)
4 | B4 | 1.11 ± 0.08 V (threshold voltage) | 1.08 ± 0.04 V (threshold voltage) | 1.02 ± 0.08 V (threshold voltage)
5 | B5 | 1.17 ± 0.09 V (threshold voltage) | 1.18 ± 0.06 V (threshold voltage) | 1.16 ± 0.03 V (threshold voltage)
